Test: yeast display, Sf9 membrane polyspecificity reagent, FACS + sequencing; frameworks hold sequencing errors
Method in brief: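 After 36–48 hours of galactose induction, yeast (Saccharomyces cerevisiae BJ5465) displaying a synthetic nanobody library were stained at 4 °C for 1 hour with 10% biotinylated, detergent-solubilized Sf9 membrane reagent. Streptavidin microbeads enriched the stained cells before FACS sorting into low and high (top ~1%) gates on anti-HA and streptavidin fluorescence. Each clone's polyreactivity label reflects its gate of origin.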

| Sequence | polyreactivity (PSR sort gate) |
| --- | --- |
| QVQLVESGGGLVQAGGSLRLICAASGLIFGPYAMGWYRQAPGKEREFVAAITRSDGSTYYADSVKGRFTISRDNAKNTVFLQMNSLNPEDTAVYYCNADAGYVWFGGAYYWPYDYWRQGTQVTVSS | low polyreactivity |
| QVQLVESGGGLVQAGGSLRLSCAASGSIFGGYAMGWYRQAPGKERELVAAISSSGVRTYYADSVKGRFTISRDNAKNTVYLQMNSLKPEDTAVYYCAADRSRSIIPFDYWGQGTQVTVSS | low polyreactivity |
| QVQLVESVGGLVQAGGSLRLSCPASGSIFGPYAMGWYRQAPGKERELVAAMTIGGDNTYYADSVKGRFTISRDNAKNTVYLQMNSLKPEDTAVYYCAAKYYGGKPHYYEYYYWGQGTQVTVSS | low polyreactivity |
| QVQLVESGVGLVQAGGSLRLSCAASGSTFGGNAMGWYRQAPWKERELVADITFSGGSTSYAHSVKGSFTISRDNAKNTVYLLMNRLKPEDTAVYYCNRDYPEIIVAGLDFWGQGTQLTVSS | low polyreactivity |
| QVQLVESGGGLVQAGGSLRLSCAASGSIFDPYAMGWYRQAPGKERELVAAIRWGGGTTYYADSVKGRFTISRDNSKITVSLQMNSLKPEDTAVYYCAASWDWYDYWYDYWGQGTQVTVSS | high polyreactivity |
| QVQLVESGGGLVQAGGSLRLSCAASGSTFSRYAMGSYRQAPGKERELVAAITGTGGRTYYADSVKGRFTISRDNAKNTVYLQMNSLKPEDTAVYYCAAQRWTVKYNYWGQGTQVTVSS | high polyreactivity |
| QVQLVESGGGLVQAGGSLRLSCAASGRIFRFYAMGWYRQAPGKERELVAAINSRGGSTYYADSVKGRFTISRDNAKNTVYLQMNSLKPEDTAFYYCNARSGFGYGYGYWGQGTQVTVSS | high polyreactivity |
| QVQLVESGGGLVQAGGSLRLSCAASGRTFGWYTMGWYRKAPGKVRELVAGISSSGGSTYYADSVKGRFTISRDNAKNTVYLQMNSLKPEDTAVYYCARETYPHGLYYRPYDYWGQGTQVTVSS | low polyreactivity |
| QVQLVESGGGLVQAGGSLRLSCAASGFTFSKYAMGCSRQAPGKETELVAAISRSAGSTYYADSVKRRFTISREYAKNTVYLQMNSLKPEDTAVYYCARDNPRRPSGYNYSGQGTQVTVSS | high polyreactivity |
| QDQLVESGGGLVQAGGSLRLSCAASGSTFVVNAMGWYRQAPGKERELVAAISSSGSSTYADSVKGRFTISRDNEKNTVYLQMNCLKPEDTAVYYCHKTTLLTVEYDYWGQGTQVSVSS | low polyreactivity |
| QVQLVESGGGLVQAGGSLRLSCAASGRIFSKNAMGWYRQAPGKERELVAAISSRGGSTYYADSVKGRFTISRDNAKNTVYLQMNSLKPEDTAVYYCAAGNGAYNYWCRYGYWGQGTQVTVSS | high polyreactivity |
| QVQLVESGGGLVQAGGSLRLSCAASGRTFTYYAMGWYIHAPGKERELVAAITWSGGSTYYADSVKGRFTISRDNAKNSVYLHMNSLKPEDTAVYYCNKTYRQGWSWVSYRSYGSGEGYWGQGTQVTVSS | high polyreactivity |
| QVQLVESGGGLVQAGGSLRLSCAASGSTLWFNAMGWYRQAPGKERELVAAISFSSGSTYYADSVKGRFTISRDNAKNTVYLQMNSLKPEDTAVYYCAARLRWWGYDYWGQGTQVTVSS | high polyreactivity |
| QVQLVESGGGLVQAGGSLRLSCAASGSIFIINAMGWYIQAPGKERELVAAINNGVNTYYADSVKGRFTISRDNAKNTVYLQMNSLKPEDTAVYYCAADYGDPRVNEYDYWGQGTQVTVSS | low polyreactivity |
| QVQLVESGGGLVQAGGSLRLSCAASGRTFPAYAMGWYRQAPGKERELVAAISRGGSTYYADSVKGRFTISRDNAKNTVYLQMNSLKPEDTAVYYCAARYSYYRQGDSWYNYNYWGQGTQVTVSS | high polyreactivity |
| QVQLVESGGGLFQAGGSLSLRCAASGSSFDDYTMGWYRQATGKETELLAAISSAGSTNYADSVKGRFTISRDNAKNTVYLQMNILKPEDTAVYSFAAQVHPLRYDYWGQGTQVTVSS | low polyreactivity |
| QVQLVESGGGLVQAGGSLRLSCAASGRILIGNALGWYRQAPGKERELVAAISKRGGSTYYADSVKGRFTMSRDNAKNTDYLHMNSLKPEDTAVYYCNIESLYREFDYWGQGTLVTVSS | low polyreactivity |
| QVQLVESGGGLVQAGGSLRLSCAASGFTFSPNAMGWSTQAPGQEREVVAAITSGGNTYADSVKGRFTISRDNAKNSVYFQMNSLKPDDNAVYYCAKGEGYWYIARYLPVGYGYWGQGTQVTVSS | low polyreactivity |
| QVQLVESGGGLVQAGVSLRLSCAASARIFSGYAMGWYRQAPGKEREFVAAITSSGRTKYADSVKGRFTISRDNATNTVYLQMNSLKPEDTAVYYCAAYFGYDWPEYDYWRQGTQVTVSS | high polyreactivity |
| QVQLVESGGGLVQAGGSLRLSCAPSGRIFPYYAMGRYRQAPGKERELVATITASSGSTYYADSVKGRFTISRDNAKNTVYLQMNSLKPEDTAVYYCAAGFVYRPGSYIRFDYWGQGTQVTVSS | high polyreactivity |
| QVQLVESGGGLVKAGGSLRLSCAASGSIFPYNAMGWYRQAPGKERELVATISSGGSTNYADSVKGRFTISRDNAKNTVYLQMNSMKPEDTAVYYCAADVSVFYYAPNYWGDIEYGYWGQGTQVTVSS | low polyreactivity |
| QVQLVESGGGLVQAGGSLRLSCAASGSTFYVNAMGWYRQAPGKERYADSVKGRFTISRDNAKNTVYLQMNSLKPEDTAVYYCAAKVPEPPSLDESDYWGQGTQVTVSS | low polyreactivity |

| Sequence | polyreactivity (PSR sort gate) |
| --- | --- |
| QVQLVESGGGLVQAGGSLRLICAASGLTFAGYAMGWYRQAPGKERELVAAITYSTGRTYYADSVKGRFTISRDNAKNTVYLQMNSLKPEDTAVYYCAALLRGQDRTMDYWGQGTQVTVSS | high polyreactivity |
| QVQLVESGGGLVQAGGSLRLSCAASGSIFPPNAMGWDRQAPGKERELVAGISQSGGSTYYAESVKGRFTISRDNAKNTVYLQMNSLKPEDTAVYYCARSFYSGRRYYYWGQGTQVTVSS | high polyreactivity |
| QVQLVESGGGLVQAGGSLRLSCAASGGTIDYAMGWYSQAPGKERELVAAISKHGGRTYYADSVKGRFTISRDNAKYTVYLQMNSLKPEDTAVYYCAADAFRGFYWGQGTQVTVSS | high polyreactivity |
| HVQLVESGGGLVQAGGSLRLSCAASGSTFTTNVRGWYRQAPGKERELVAAISWNGASTNYADSVKGRFTISRDNAKNTVYLHMNSLNPEDTAVYYCAADVTGLVWDSYYYYFLYEYEYWGQGTQVTVSS | high polyreactivity |
| QVQLVESGGGLVQAGGSLRLSSAASGTTFAPNAMGWYRPAPGKERELVAAISSGGDSTNYADSVKGRFTISRDNAKNTVYLQLNSLKPEDTAVYYCAAHYVEREYDYWGQGTQVTVSS | low polyreactivity |
| QDQHVESGGGLVQAGGSLRLSCAASGIILSAYAMGWYRQAPGTERELVARISRSGGRTYYADSVKGRFTISRDNAKNTVYLQMNSLKPEDTAVYYCAADYSYGFGLYFGYGYWGQGTQVTVSS | high polyreactivity |
| QVQLVESGGGLVQAGGSLRLSCAASGSTFQSYAMGRYRQAPGKERELVAAISFSGGSTYYADSVKGRFTISRDNAKNTVYLQMNSLKPEDTAVYYCAKRGWVYFHGYDYWGQGTQVTVSS | low polyreactivity |
| QVQLVESGGGLVQAGGSLRLSCAASGRIFQLYAMGWYRLAPGKERELVAVISSGDRTYYADSVKGRFTISRDNAKNTVYLQMNSLKPEDTAVYYCAALGWHSGGSRWHGEYDYWGQGTQVTVSS | low polyreactivity |
| QVQLVESGGGLVQAGGSLRLSCAASGNTFGLYAMGWYRQAPGKERELVATITWSVSTYADSVKGRFTISRDNAKNTVYLQMNSLKPEDTAVYYCAATTGPWYWRYDYWGQGTQVTVSS | high polyreactivity |
| QVQLVESGGGLVQAGGSLRLSCAASGSIFGSYAMGWYRQAPGKERELVAAISYRGGRTYYADSVKGRFTISRDNAKNTVYLQMNSLKPEDTAVYYCNARARNSPPYDYWGQGTQVTVSS | high polyreactivity |
| QVQLVESGGGLDQAGGSLRLSCAASGRTFVVYAMGWYRQAPGKERELVAAITSSGNTYYADSVKGRFTISRDNAKNTVYLQMNSLKPEDTAVYYCAAYSLYGYDYWGQGTQVTVSS | low polyreactivity |
| QVQLVDSGGGLVQAGGSLRLSCAASGRIFQPNAMGWYRQAPGKEMEFVAAISSSGGSTFYADSVKGRFTISRDNAKNTVYLQMNSLKPEDTAVYYCAKRYGYTEYYYWGQGTQVTVSS | high polyreactivity |
| QVQLVESGGGLVQAGGSLRLSCAASGFTFRWYTMGWYRQAPGKERELVASINWSTGSTYYADSVKGRFTISRDNAKNTVYLQMNSLKPEDTAVYYCAATAWYNSYFGLDYWGQGTQVTVSS | high polyreactivity |
| QVQLVESGGGLVQAGGSLRLSCAAYGSTFWPYAKGWSRQAPGKERELVAAISSSGGSTYYADSVKGRFTISRDNAKHTVYLQMNSLIPEDTAVYYCNIDYHRPYGGGSKGDFWGQGTQVTVSS | low polyreactivity |
| QVQLVESGGGLVQAGGSLRLSCAASGSTFSYNAMGWYRQAPGKERELVAGITGRGGSTYYADSEKGRFTISRDNAKNTVYLQMYSLKPEDTAVYYCAADARSYGYPDDFWGQGTQVTVSS | high polyreactivity |
| QVQLVESGGGLVQAGGSLRLSCAASGSTFFIYAMGWYRQAPGKERELVAAISWRDGSTYYADSVKGRFTISRDNAKNTVYLQMNSLKPEDTAVYYCAADYLLPWGIELDYWGQGTQVTVSS | high polyreactivity |
| QVQLVESGGGLVQAGGSLRLSCAASGRTFGKYAMGWYRQAPGKERELVASITFSSGSTYYADSVKGRFTISRDNAKNTVYLQMNSLKPEDTAVYYCAKRGWGIYDYWGQGTQVTVSS | low polyreactivity |
| QVQLVESGGGLVQAGGSLRLSCAASGSTIYINGMGWYRQAAGKERELVAVISKRGGTTYYADSVKGRFTISRDNAKNTVYLQMNSLKPEDTAVYYCADRPYYWGQGTQVTVSS | high polyreactivity |
| QVQLVESGGGLVQAGGSLRLSCAASGRTFYTNAMGWYRQAPGKERELVAAITRGGTTYYADSVKGRFTISRDNAKNTVYLQMNSLKPVDTAVYYCAADTESIVATDLIRKYDYWGQGTQVTVSS | low polyreactivity |
| QVQLVESGGGLVQAGGSLRLSCAASGSTSPGYAMGWYRQAPWKERELVAAITFRGTRTYYADSVKGRFTISRDNSKNTVYLQMNSLKPEDTEVYYCNVVGYGPNRGRVDYWGQGTLVTVSS | high polyreactivity |
| QVHLVESGGGLVQAGGSLRLSCAASGFIFYYYAMGWYRQAPGKERELVASISAIGGGTYYADSVNGRFTISRDNAKNTVYLQMNSLKPEDTAVYYCDPDGDGWWWSYVDRYDYWGQGTQVTVSS | low polyreactivity |
